In the Human Domainome abundance scans (Beltran et al. 2025):
± gives the uncertainty stated by the source.

B1: SWI/SNF-related matrix-associated actin-dependent regulator of chromatin subfamily B member 1, residues 181 to 248; numbered along this chain, Q12824 (parent)
chain: SQPEVLVPIRLDMEIDGQKLRDAFTWNMNEKLMTPEMFSEILCDDLDLNPLTFVPAIASAIRQQIESY

Variants of: B1
Assay: abundance fitness (aPCA) (normalised: wild type 0, dead -1); higher = more abundant; growth selection in yeast, the domain comes from the species named
Conditions: Homo sapiens

| Variant | abundance fitness |
| --- | --- |
| Q63A | -0.057 ± 0.043 |
| Q63D | -0.019 ± 0.082 |
| Q63K | -0.067 ± 0.073 |
| Q63N | -0.038 ± 0.075 |
| Q63E | -0.163 ± 0.11 |
| Q63Y | 0.105 ± 0.2 |
| S39R | -0.797 ± 0.36 |
| L20G | -0.677 ± 0.18 |
| L20S | -0.603 ± 0.28 |
| L20F | -0.011 ± 0.1 |
| L20K | -0.598 ± 0.29 |
| L20M | -0.655 ± 0.19 |
| L20H | -0.525 ± 0.37 |
| L20E | -0.94 ± 0.32 |
| A60W | -0.71 ± 0.22 |
| A60K | -0.214 ± 0.068 |
| A60E | 0.085 ± 0.089 |
| A60Y | -0.637 ± 0.11 |
| E14R | -0.733 ± 0.14 |
| E14K | -0.334 ± 0.45 |
| E14P | -0.937 ± 0.22 |
| E14Y | -0.633 ± 0.35 |
| E14V | -0.199 ± 0.059 |
| I61A | -0.763 ± 0.1 |

| Variant | abundance fitness |
| --- | --- |
| I61T | -0.594 ± 0.16 |
| I61W | -0.989 ± 0.25 |
| I61K | -0.75 ± 0.17 |
| I61C | -0.956 ± 0.27 |
| I61V | -0.536 ± 0.1 |
| I61G | -0.854 ± 0.15 |
| D22N | 0.005 ± 0.25 |
| D22C | 0.035 ± 0.096 |
| D22W | 0.293 ± 0.3 |
| D22M | -0.277 ± 0.4 |
| I41T | 0.091 ± 0.049 |
| I41R | 0.218 ± 0.03 |
| I41W | -0.04 ± 0.045 |
| I41D | -0.04 ± 0.12 |
| I41E | 0.131 ± 0.043 |
| I41N | 0.167 ± 0.068 |
| I41G | 0.097 ± 0.041 |
| E40I | -0.419 ± 0.099 |
| E40Q | 0.005 ± 0.065 |
| E40R | 0.042 ± 0.033 |
| E40D | -0.566 ± 0.089 |
| E40N | -0.269 ± 0.11 |
| L42P | -0.33 ± 0.1 |
| L42Y | -0.071 ± 0.12 |

| Variant | abundance fitness |
| --- | --- |
| L42F | -0.128 ± 0.21 |
| L42T | -0.854 ± 0.13 |
| L42D | -0.869 ± 0.19 |
| L6W | -0.152 ± 0.39 |
| L6V | -0.221 ± 0.18 |
| L6Y | -0.346 ± 0.29 |
| L6M | 0.141 ± 0.083 |
| L6I | -0.03 ± 0.43 |
| D44G | -0.276 ± 0.16 |
| D44V | -0.008 ± 0.27 |
| D44A | 0.271 ± 0.22 |
| D44N | -0.403 ± 0.47 |
| D44H | 0.258 ± 0.17 |
| L48S | -0.659 ± 0.072 |
| L48R | -0.989 ± 0.21 |
| L48F | -0.656 ± 0.17 |
| L48I | -0.147 ± 0.14 |
| L48V | -0.554 ± 0.071 |
| L48H | -0.722 ± 0.18 |
| L48K | -0.651 ± 0.12 |
| L48G | -0.66 ± 0.077 |
| M28T | -0.277 ± 0.24 |
| M28L | 0.087 ± 0.16 |
| M28V | -0.086 ± 0.14 |

| Variant | abundance fitness |
| --- | --- |
| L51T | -0.174 ± 0.12 |
| L51A | 0.041 ± 0.088 |
| L51S | 0.044 ± 0.065 |
| D45H | -0.143 ± 0.39 |
| D45G | -0.185 ± 0.26 |
| N49M | -0.846 ± 0.13 |
| N49R | -0.789 ± 0.09 |
| N49K | -0.824 ± 0.13 |
| N49G | -0.735 ± 0.11 |
| N49V | -0.814 ± 0.076 |
| N49I | -0.932 ± 0.23 |
| N49D | -0.057 ± 0.046 |
| W26M | -0.566 ± 0.33 |
| W26A | -1 ± 0.28 |
| W26R | -0.498 ± 0.18 |
| M13V | -0.214 ± 0.17 |
| M13G | -0.718 ± 0.25 |
| M13Q | -0.717 ± 0.34 |
| Q18L | -0.297 ± 0.16 |
| Q18P | -0.93 ± 0.23 |
| Q18H | -0.136 ± 0.33 |
| Q18G | -1.01 ± 0.27 |
| Q18A | -0.311 ± 0.069 |
| Q18W | 0.158 ± 0.21 |

| Variant | abundance fitness |
| --- | --- |
| F38Y | -0.509 ± 0.49 |
| F38T | -0.722 ± 0.28 |
| F38S | -0.809 ± 0.24 |
| F38R | 0.11 ± 0.14 |
| F38C | -0.675 ± 0.24 |
| T52S | -0.14 ± 0.17 |
| T52L | -0.163 ± 0.14 |
| T52I | -0.417 ± 0.4 |
| T52D | -0.168 ± 0.31 |
| T52V | -0.005 ± 0.095 |
| T52K | 0.189 ± 0.071 |
| T52R | -0.21 ± 0.057 |
| T52Q | -0.215 ± 0.1 |
| T52G | -0.634 ± 0.14 |
| T52C | -0.31 ± 0.24 |
| T34S | -0.205 ± 0.073 |
| T34P | -0.454 ± 0.38 |
| K31S | -0.063 ± 0.065 |
| K31A | 0.031 ± 0.077 |
| K31R | -0.113 ± 0.043 |
| K31C | -0.391 ± 0.095 |
| A23M | 0.048 ± 0.067 |
| A23D | 0.211 ± 0.063 |
| A23L | -0.387 ± 0.15 |

| Variant | abundance fitness |
| --- | --- |
| A23S | 0.089 ± 0.064 |
| A23T | 0.155 ± 0.056 |
| A23P | -0.599 ± 0.28 |
| A23I | -0.076 ± 0.17 |
| V5M | -0.107 ± 0.28 |
| V5A | -0.086 ± 0.26 |
| V5H | 0.505 ± 0.19 |
| V5C | 0.116 ± 0.077 |
| V5L | -0.009 ± 0.08 |
| V5G | -0.302 ± 0.1 |
| V5P | -0.366 ± 0.2 |
| V5Q | 0.184 ± 0.11 |
| V5I | -0.438 ± 0.23 |
| V5K | -0.051 ± 0.31 |
| L11T | -0.057 ± 0.13 |
| L11S | -0.751 ± 0.37 |
| L11A | -0.792 ± 0.38 |
| V7P | -0.753 ± 0.18 |
| V7K | -0.906 ± 0.17 |
| V7E | -0.868 ± 0.18 |
| V7Q | -0.937 ± 0.19 |
| V7R | -0.998 ± 0.12 |
| V7I | -0.049 ± 0.086 |
| V7D | -0.749 ± 0.23 |

| Variant | abundance fitness |
| --- | --- |
| I57P | -1.04 ± 0.28 |
| I57W | -0.615 ± 0.2 |
| I57K | -0.931 ± 0.14 |
| I57H | -1.03 ± 0.2 |
| I57Q | -0.779 ± 0.18 |
| A56M | -0.416 ± 0.11 |
| A56T | -0.566 ± 0.11 |
| A56G | -0.523 ± 0.049 |
| A56F | -0.623 ± 0.16 |
| A56H | -0.123 ± 0.081 |
| A56S | -0.278 ± 0.03 |
| A56D | -0.552 ± 0.11 |
| A56C | -0.384 ± 0.066 |
| A56K | -0.041 ± 0.13 |
| E66T | -0.169 ± 0.073 |
| E66W | -0.313 ± 0.072 |
| E66G | -0.316 ± 0.075 |
| E66I | -0.276 ± 0.13 |
| E66N | -0.227 ± 0.11 |
| E66K | -0.106 ± 0.059 |
| E66A | 0.096 ± 0.049 |
| E66M | -0.215 ± 0.12 |
| E66L | -0.229 ± 0.05 |
